Assay results published in US12514920B1, “Respiratory syncytial virus mRNA vaccine, and preparation method therefor and use thereof” (Hangzhou Tianlong Pharmaceutical Co., Ltd., priority 2024, dated 2026).
Positions count from the first letter of the chain named.

B1: YK-RSV-045 (protein)
chain: QNITEEFYQSTCSAVSKGYLGALRTGWYTSVITIELSNIKENKCNGTDAKVKLIKQELDKYKNAVTDLQLLMQSCPATGSGSAIASGVAVSKVLHLEGEVNKIKSALLSTNKAVVSLSNGVSVLTFKVLDLKNYIDKQLLPILNKQSCSIPNIETVIEFQQKNNRLLEITREFSVNAGVTTPVSTYMLTNSELLSLINDMPITNDQKKLMSNNVQIVRQQSYSIMSIIKEEVLAYCVQLPLYGVIDTPCWKLHTSPLCTTNTKEGSNICLTRTDRGWYCDNAGSVSFFPQAETCKVQSNRVFCDTMNSRTLPSEVNLCNVDIFNPKYDCKIMTSKTDVSSSVITSLGAIVSCYGKTKCTASNKNRGIIKTFSNGCDYVSNKGVDTVSVGNTLYYVNKQEGQSLYVKGEPIINFYDPLVFPSDEFDASISQVNEKINQSLAFIRKSDELLHNVNAGKSTTNIMITTIIIVIIVILLSLIAVGLLLY
B2: YK-RSV-058 (protein)
chain: B1 chain with C75T, C236V, S266C, G407C
B3: YK-RSV-059 (protein)
chain: B1 chain with C75T, C236V, N261C, G407C
B4: YK-RSV-002 (protein)
chain: B1 chain with T29H, C75T, A85C, S91C, L143V, S226C, C236V, Y394C, D422S
B5: YK-RSV-052 (protein)
chain: B1 chain with C75T, S82C, C236V, L241C
B6: YK-RSV-046 (protein)
chain: QNITEEFYQSTCSAVSKGYLGALRTGWYTSVITIELSNIKENKCNGTDAKVKLIKQELDKYKNAVTDLQLLMQSTPATGSGSFCGFLLGVGSAIASGVAVSKVLHLEGEVNKIKSALLSTNKAVVSLSNGVSVLTFKVLDLKNYIDKQLLPILNKQSCSIPNIETVIEFQQKNNRLLEITREFSVNAGVTTPVSTYMLTNSELLSLINDMPITNDQKKLMSNNVQIVRQQSYSIMSIIKEEVLAYVVQLPLYGVIDTPCWKLHTSPLCTTNTKEGSNICLTRCDRGWYCDNAGSVSFFPQAETCKVQSNRVFCDTMNSRTLPSEVNLCNVDIFNPKYDCKIMTSKTDVSSSVITSLGAIVSCYGKTKCTASNKNRGIIKTFSNGCDYVSNKGVDTVSVGNTLYYVNKQEGQSLYVKGEPIINFYDPLVFPSDEFDASISQVNEKINQSLAFIRKSDELLHNVNAGKSTTNIMITTIIIVIIVILLSLIAVGLLLY
B7: YK-RSV-051 (protein)
chain: B6 chain with C84L, F86C, C283T, T315C

The molecules below were run on RSV pre-F antibody (3C12) (assay: Binding of epitope Φ of RSV F antigen mutants by flow cytometry). Conditions: flow cytometry; epitope Φ, antibody 3C12.
Method in brief: (§1)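 293T cells were transfected with mRNA-LNP (300 ng mRNA) encoding the RSV F mutants and harvested after 16 h. Cells were stained with fluorescent 3C12 (pre-F-specific epitope Φ) or 11A9 (epitope II, pre-F and post-F) for 2 h at 4 °C in the dark, then washed and read by flow cytometry on 1×10^4 cells per measurement.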

Molecule | RSV pre-F antibody (3C12) Epitope Φ (%) binding rate
B1 | 78.3%
B2 | 81.2%
B3 | 83.1%
B4 | 88.0%
B5 | 89.4%
B6 | 84.0%
B7 | 76.8%

Same assay, conditions: ratio of epitope Φ (3C12) to epitope II (11A9) binding rate

Molecule | Φ/II (%)
B1 | 91.0%
B2 | 91.5%
B3 | 92.5%
B4 | 94.1%
B5 | 95.4%
B6 | 93.5%
B7 | 88.2%

These molecules were tested on RSV pre-F antibody (3C12) (assay: not given). Conditions: high osmotic pressure 3000 mM, room temperature, 60 min; ELISA binding to 3C12.
Assay type: physicochemical
Method in brief: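 RSV F mRNA-vaccine mutants stress-treated: 4° C. for one week, 50° C. for 60 min, low or high osmotic pressure at room temperature for 60 min, acid or base at room temperature for 60 min. Binding to 3C12 (epitope Φ) then measured by ELISA against pre-F trimer standard, HRP anti-human IgG, OD 450/630 nm.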

Molecule | Stress resistance parameter, Osmotic pressure (mM) 3000
B1 | 0.46 ± 0.05
B2 | 0.50 ± 0.05
B3 | 0.44 ± 0.03
B4 | 0.44 ± 0.13
B5 | 0.30 ± 0.06
B6 | 0.41 ± 0.02
B7 | 0.44 ± 0.00

Same assay, conditions: incubation at 50° C. for 60 min; ELISA binding to 3C12

Molecule | Stress resistance parameter, Temperature (° C.) 50
B1 | 0.41 ± 0.03
B2 | 0.73 ± 0.09
B3 | 0.74 ± 0.07
B4 | 0.46 ± 0.06
B5 | 0.69 ± 0.09
B6 | 0.63 ± 0.03
B7 | 0.60 ± 0.08

Same assay, conditions: low osmotic pressure 10 mM, room temperature, 60 min; ELISA binding to 3C12

Molecule | Stress resistance parameter, Osmotic pressure (mM) 10
B1 | 0.57 ± 0.09
B2 | 0.60 ± 0.04
B3 | 0.49 ± 0.02
B4 | 0.84 ± 0.14
B5 | 0.88 ± 0.21
B6 | 0.46 ± 0.14
B7 | 0.51 ± 0.13

Same assay, conditions: pH 3.5, room temperature, 60 min; ELISA binding to 3C12

Molecule | Stress resistance parameter, pH 3.5
B1 | 0.47 ± 0.09
B2 | 0.72 ± 0.03
B3 | 0.73 ± 0.03
B4 | 0.65 ± 0.08
B5 | 0.80 ± 0.04
B6 | 0.83 ± 0.04
B7 | 0.69 ± 0.14

Same assay, conditions: pH 10, room temperature, 60 min; ELISA binding to 3C12

Molecule | Stress resistance parameter, pH 10
B1 | 0.97 ± 0.07
B2 | 0.81 ± 0.05
B3 | 0.82 ± 0.09
B4 | 0.97 ± 0.14
B5 | 1.22 ± 0.14
B6 | 1.03 ± 0.03
B7 | 1.00 ± 0.17

Same assay, conditions: storage at 4° C. for one week; ELISA binding to 3C12

Molecule | Stress resistance parameter, Temperature (° C.) 4
B1 | 0.29 ± 0.02
B2 | 0.36 ± 0.07
B3 | 0.52 ± 0.10
B4 | 0.61 ± 0.11
B5 | 0.42 ± 0.10
B6 | 0.24 ± 0.07
B7 | 0.33 ± 0.05

The molecules below were run on RSV F antibody (11A9) (assay: Binding of epitope II of RSV F antigen mutants by flow cytometry). Conditions: epitope II, antibody 11A9.
Method in brief: as §1

Molecule | RSV F antibody (11A9) Epitope II (%) binding rate
B1 | 86.0%
B2 | 88.7%
B3 | 89.8%
B4 | 93.5%
B5 | 93.7%
B6 | 89.8%
B7 | 87.1%
